# ± gives the standard deviation of the averaged measurements.
# Experiments:
# [1] = system: Saccharomyces cerevisiae; assay: protein stability index of tFT-peptide fusion (C-terminal peptide) (PSI (0-1 scale)); higher = more stable (slower turnover)
# Protocol: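 MPS profiling in S. cerevisiae of the tFT-X12 degron library: putative degron peptides plus stable controls, 12 aa, fused to the C-terminus of a sfGFP-mCherry timer. Cells are FACS-sorted into 8 mCherry/sfGFP bins and deep-sequenced. PSI runs from 0 (unstable) to 1 (stable). Backgrounds are wild type, das1Δ and doa10Δ at 30 °C, and wild type, das1Δ, cdc34-1 and cdc53-1 at 37 °C; 2-3 technical replicates each.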
# [2] = system: Saccharomyces cerevisiae; assay: as above; settings: genetic background: wild type; temperature: 30 C
# [3] = genetic background: cdc34-1, temperature: 37 C
# [4] = genetic background: cdc53-1, temperature: 37 C
# [5] = genetic background: das1 deletion, temperature: 30 C
# [6] = genetic background: das1 deletion, temperature: 37 C
# [7] = genetic background: doa10 deletion, temperature: 30 C
# [8] = genetic background: wild type, temperature: 30 C
# [9] = genetic background: wild type, temperature: 37 C
# 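Further: PSI is a weighted mean of sequencing reads over stability bins, variants kept only with over 10 reads, mCherry proximal and sfGFP distal, peptide attached via GGGS linker.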
sequence,measurement,setting,value
TRVVSPNVILMC,protein stability index,[1]; [3],0.6679 ± 0.00086
same,protein stability index,[1]; [4],0.7417 ± 0.0073
same,protein stability index,[1]; [5],0.61 ± 0.027
same,protein stability index,[1]; [6],0.725 ± 0.019
same,protein stability index,[1]; [7],0.5135 ± 0.0048
same,protein stability index,[1]; [8],0.526 ± 0.022
same,protein stability index,[1]; [9],0.673 ± 0.009
same,protein stability index,[2],0.505 ± 0.017
TTSHFCVVLVSV,protein stability index,[1]; [3],0.283 ± 0.042
same,protein stability index,[1]; [4],0.307 ± 0.016
same,protein stability index,[1]; [5],0.232 ± 0.039
same,protein stability index,[1]; [6],0.382 ± 0.009
same,protein stability index,[1]; [7],0.182 ± 0.012
same,protein stability index,[1]; [8],0.217 ± 0.032
same,protein stability index,[1]; [9],0.356 ± 0.013
same,protein stability index,[2],0.32 ± 0.016
TVERKMYWQRWG,protein stability index,[1]; [3],0.666 ± 0.029
same,protein stability index,[1]; [4],0.745 ± 0.025
same,protein stability index,[1]; [5],0.641 ± 0.011
same,protein stability index,[1]; [6],0.754 ± 0.01
same,protein stability index,[1]; [7],0.1794 ± 0.00073
same,protein stability index,[1]; [8],0.187 ± 0.0033
same,protein stability index,[1]; [9],0.4975 ± 0.0044
same,protein stability index,[2],0.391 ± 0.045
TVGVGWVWVGVL,protein stability index,[1]; [3],0.5667 ± 0.00058
same,protein stability index,[1]; [4],0.611 ± 0.026
same,protein stability index,[1]; [5],0.446 ± 0.026
same,protein stability index,[1]; [6],0.649 ± 0.015
same,protein stability index,[1]; [7],0.367 ± 0.0044
same,protein stability index,[1]; [8],0.403 ± 0.015
same,protein stability index,[1]; [9],0.576 ± 0.015
same,protein stability index,[2],0.467 ± 0.015
TVIVCCHLEVVY,protein stability index,[1]; [3],0.0776 ± 0.07
same,protein stability index,[1]; [4],0.0367 ± 0.024
same,protein stability index,[1]; [5],0.0294 ± 0.014
same,protein stability index,[1]; [6],0.0693 ± 0.013
same,protein stability index,[1]; [7],0.0254 ± 0.013
same,protein stability index,[1]; [8],0.0249 ± 0.0089
same,protein stability index,[1]; [9],0.0685 ± 0.023
same,protein stability index,[2],0.0135 ± 0.0057
VAALLCWLHLYA,protein stability index,[1]; [3],0.602 ± 0.018
same,protein stability index,[1]; [4],0.639 ± 0.02
same,protein stability index,[1]; [5],0.509 ± 0.019
same,protein stability index,[1]; [6],0.622 ± 0.032
same,protein stability index,[1]; [7],0.362 ± 0.007
same,protein stability index,[1]; [8],0.409 ± 0.029
same,protein stability index,[1]; [9],0.563 ± 0.0096
same,protein stability index,[2],0.498 ± 0.011
VAFVVALSLIFL,protein stability index,[1]; [3],0.327 ± 0.019
same,protein stability index,[1]; [4],0.443 ± 0.014
same,protein stability index,[1]; [5],0.306 ± 0.028
same,protein stability index,[1]; [6],0.424 ± 0.0062
same,protein stability index,[1]; [7],0.281 ± 0.019
same,protein stability index,[1]; [8],0.333 ± 0.043
same,protein stability index,[1]; [9],0.43 ± 0.023
same,protein stability index,[2],0.386 ± 0.0059
VALSILCVFFFF,protein stability index,[1]; [3],0.253 ± 0.021
same,protein stability index,[1]; [4],0.357 ± 0.01
same,protein stability index,[1]; [5],0.272 ± 0.035
same,protein stability index,[1]; [6],0.4457 ± 0.0032
same,protein stability index,[1]; [7],0.24 ± 0.025
same,protein stability index,[1]; [8],0.273 ± 0.022
same,protein stability index,[1]; [9],0.383 ± 0.0064
same,protein stability index,[2],0.309 ± 0.055
VARLGGRIGWEG,protein stability index,[1]; [3],0.694 ± 0.022
same,protein stability index,[1]; [4],0.736 ± 0.019
same,protein stability index,[1]; [5],0.634 ± 0.014
same,protein stability index,[1]; [6],0.763 ± 0.015
same,protein stability index,[1]; [7],0.652 ± 0.026
same,protein stability index,[1]; [8],0.646 ± 0.013
same,protein stability index,[1]; [9],0.7208 ± 0.0018
same,protein stability index,[2],0.548 ± 0.17
VCFCFLRFLSLL,protein stability index,[1]; [3],0.543 ± 0.043
same,protein stability index,[1]; [4],0.685 ± 0.014
same,protein stability index,[1]; [5],0.572 ± 0.031
same,protein stability index,[1]; [6],0.716 ± 0.031
same,protein stability index,[1]; [7],0.176 ± 0.0026
same,protein stability index,[1]; [8],0.191 ± 0.0057
same,protein stability index,[1]; [9],0.24 ± 0.019
same,protein stability index,[2],0.262 ± 0.016
VCFFSSSCFLLV,protein stability index,[1]; [3],0.58 ± 0.026
same,protein stability index,[1]; [4],0.607 ± 0.015
same,protein stability index,[1]; [5],0.507 ± 0.021
same,protein stability index,[1]; [6],0.623 ± 0.01
same,protein stability index,[1]; [7],0.463 ± 0.0036
same,protein stability index,[1]; [8],0.45 ± 0.033
same,protein stability index,[1]; [9],0.567 ± 0.0069
same,protein stability index,[2],0.47 ± 0.035
VCLVFVVRPCIR,protein stability index,[1]; [3],0.549 ± 0.021
same,protein stability index,[1]; [4],0.578 ± 0.023
same,protein stability index,[1]; [5],0.436 ± 0.033
same,protein stability index,[1]; [6],0.606 ± 0.022
same,protein stability index,[1]; [7],0.401 ± 0.0078
same,protein stability index,[1]; [8],0.414 ± 0.023
same,protein stability index,[1]; [9],0.599 ± 0.0089
same,protein stability index,[2],0.4904 ± 0.0027
VCLWAIHLSGCW,protein stability index,[1]; [3],0.546 ± 0.046
same,protein stability index,[1]; [4],0.601 ± 0.048
same,protein stability index,[1]; [5],0.46 ± 0.022
same,protein stability index,[1]; [6],0.58776 ± 0.00056
same,protein stability index,[1]; [7],0.453 ± 0.021
same,protein stability index,[1]; [8],0.449 ± 0.03
same,protein stability index,[1]; [9],0.584 ± 0.014
same,protein stability index,[2],0.475 ± 0.035
VCNYRKLIWKHH,protein stability index,[1]; [3],0.52 ± 0.024
same,protein stability index,[1]; [4],0.661 ± 0.047
same,protein stability index,[1]; [5],0.653 ± 0.015
same,protein stability index,[1]; [6],0.746 ± 0.029
same,protein stability index,[1]; [7],0.0622 ± 0.031
same,protein stability index,[1]; [8],0.0668 ± 0.033
same,protein stability index,[1]; [9],0.13 ± 0.012
same,protein stability index,[2],0.181 ± 0.023
VCVLRWAVAPCR,protein stability index,[1]; [3],0.287 ± 0.0041
same,protein stability index,[1]; [4],0.342 ± 0.0038
same,protein stability index,[1]; [5],0.245 ± 0.035
same,protein stability index,[1]; [6],0.429 ± 0.0067
same,protein stability index,[1]; [7],0.207 ± 0.0051
same,protein stability index,[1]; [8],0.235 ± 0.032
same,protein stability index,[1]; [9],0.399 ± 0.013
same,protein stability index,[2],0.356 ± 0.027
VCWCVVVLEFGL,protein stability index,[1]; [3],0.15 ± 0.049
same,protein stability index,[1]; [4],0.367 ± 0.15
same,protein stability index,[1]; [5],0.197 ± 0.031
same,protein stability index,[1]; [6],0.363 ± 0.0062
same,protein stability index,[1]; [7],0.168 ± 0.012
same,protein stability index,[1]; [8],0.185 ± 0.029
same,protein stability index,[1]; [9],0.267 ± 0.044
same,protein stability index,[2],0.313 ± 0.013
VECPWFCLGVLA,protein stability index,[1]; [3],0.336 ± 0.027
same,protein stability index,[1]; [4],0.318 ± 0.018
same,protein stability index,[1]; [5],0.278 ± 0.04
same,protein stability index,[1]; [6],0.4359 ± 0.0013
same,protein stability index,[1]; [7],0.2324 ± 0.001
same,protein stability index,[1]; [8],0.284 ± 0.022
same,protein stability index,[1]; [9],0.416 ± 0.0065
same,protein stability index,[2],0.3848 ± 0.0018
VERKLMTIYIKI,protein stability index,[1]; [3],0.6106 ± 0.0052
same,protein stability index,[1]; [4],0.6479 ± 0.003
same,protein stability index,[1]; [5],0.451 ± 0.018
same,protein stability index,[1]; [6],0.6806 ± 0.0061
same,protein stability index,[1]; [7],0.492 ± 0.015
same,protein stability index,[1]; [8],0.499 ± 0.063
same,protein stability index,[1]; [9],0.6076 ± 0.00061
same,protein stability index,[2],0.493 ± 0.005
VFAFVVFLHFEC,protein stability index,[1]; [3],0.188 ± 0.015
same,protein stability index,[1]; [4],0.296 ± 0.048
same,protein stability index,[1]; [5],0.237 ± 0.036
same,protein stability index,[1]; [6],0.375 ± 0.013
same,protein stability index,[1]; [7],0.184 ± 0.012
same,protein stability index,[1]; [8],0.238 ± 0.029
same,protein stability index,[1]; [9],0.375 ± 0.066
same,protein stability index,[2],0.31 ± 0.0057
VFFCLFWFFCSF,protein stability index,[1]; [3],0.54 ± 0.009
same,protein stability index,[1]; [4],0.571 ± 0.057
same,protein stability index,[1]; [5],0.482 ± 0.031
same,protein stability index,[1]; [6],0.54 ± 0.0084
same,protein stability index,[1]; [7],0.454 ± 0.0066
same,protein stability index,[1]; [8],0.453 ± 0.017
same,protein stability index,[1]; [9],0.492 ± 0.012
same,protein stability index,[2],0.51 ± 0.12
